Data as given in US20250213715A1, “ANTI-CSPG4 BINDING AGENTS, CONJUGATES THEREOF AND METHODS OF USING THE SAME” (Ardeagen Corporation, priority 2020, published 2025).

Experiments:
[1] = target: T1, CSPG4 (chondroitin sulfate proteoglycan 4) on human tumor cell lines (human, UniProt Q6UVK1 30-2322); assay: flow cytometry on A375 melanoma cells, 6-point dose curve, anti-hIgG-AF488
T1 construct: Endogenous CSPG4 on human cell lines (A2058, Malme-3M, A375, SW1353, NCI-H2052); also called HMW MAA; MCSP
Experimental: (§1) Flow Cytometry—Cells were rinsed with PBS (phosphate buffered saline, pH 7.4) and harvested with Versene (Thermo Fisher) prior to incubation with FACs buffer (PBS+1% fetal bovine serum (FBS; source BioSun) containing test antibody or ADCs for 1 h at 4° C. Cells were rinsed and washed with FACs buffer (PBS+1% FBS) and detection was performed with anti-bigG-AF488. Cells were analyzed on a FACs Canto II (BD Biosciences). Quantitative FACs (qFACs) was performed to measure the number of antigen binding sites with the DAKO QifiKit (DAKO, Carpinteria, CA), according to the manufacturer's directions.
(§2) The CSPG4+A2058 and A375 melanoma and the lung NCI-H2052 and NCI-H1975 cell lines were incubated with increasing concentrations of the antibody (6-point dose curve) for 1 hr at 4° C. Detection was done with an anti-hIgG-AF488 secondary antibody.
(§3) The data were graphed and estimated binding constants (EC50 in table) were determined with Prism (GraphPad Software, San Diego, CA).

[2] = target: T1, CSPG4 (chondroitin sulfate proteoglycan …); assay: flow cytometry on A2058 melanoma cells, 8-point dose curve, anti-hIgG-AF488
Experimental: as §1
(§4) FACs binding of ARD107 antibody and corresponding conjugates to CSPG4-positive cell lines was conducted. The melanoma A2058 and Malme-3M, the SW1353 chondrosarcoma, and the NCI-H1975 lung cell lines were incubated with increasing concentrations (8-point dose curve) of the antibody, conjugates (ARD107-vcMMAE or ARD107-SN38 (ARD107-CL2A-SN-38)), or isotype control (hIgG1) for 1 hr at 4° C. Detection was done with an anti-hIgG-AF488 secondary antibody.

[3] = target: T1, CSPG4 (chondroitin sulfate proteoglycan …); assay: flow cytometry on A2058 melanoma cells, 6-point dose curve, anti-hIgG-AF488
Experimental: as §1, §2, §3

[4] = target: T1, CSPG4 (chondroitin sulfate proteoglycan …); assay: flow cytometry on SW1353 chondrosarcoma cells, 8-point dose curve, anti-hIgG-AF488
Experimental: as §1, §4

[5] = target: T1, CSPG4 (chondroitin sulfate proteoglycan …); assay: flow cytometry on NCI-H2052 lung cells, 6-point dose curve, anti-hIgG-AF488
Experimental: as §1, §2, §3

[6] = target: T1, CSPG4 (chondroitin sulfate proteoglycan …); assay: flow cytometry on Malme-3M melanoma cells, 8-point dose curve, anti-hIgG-AF488
Experimental: as §1, §4

T1 sequence (Q6UVK1 30-2322 limits assumed): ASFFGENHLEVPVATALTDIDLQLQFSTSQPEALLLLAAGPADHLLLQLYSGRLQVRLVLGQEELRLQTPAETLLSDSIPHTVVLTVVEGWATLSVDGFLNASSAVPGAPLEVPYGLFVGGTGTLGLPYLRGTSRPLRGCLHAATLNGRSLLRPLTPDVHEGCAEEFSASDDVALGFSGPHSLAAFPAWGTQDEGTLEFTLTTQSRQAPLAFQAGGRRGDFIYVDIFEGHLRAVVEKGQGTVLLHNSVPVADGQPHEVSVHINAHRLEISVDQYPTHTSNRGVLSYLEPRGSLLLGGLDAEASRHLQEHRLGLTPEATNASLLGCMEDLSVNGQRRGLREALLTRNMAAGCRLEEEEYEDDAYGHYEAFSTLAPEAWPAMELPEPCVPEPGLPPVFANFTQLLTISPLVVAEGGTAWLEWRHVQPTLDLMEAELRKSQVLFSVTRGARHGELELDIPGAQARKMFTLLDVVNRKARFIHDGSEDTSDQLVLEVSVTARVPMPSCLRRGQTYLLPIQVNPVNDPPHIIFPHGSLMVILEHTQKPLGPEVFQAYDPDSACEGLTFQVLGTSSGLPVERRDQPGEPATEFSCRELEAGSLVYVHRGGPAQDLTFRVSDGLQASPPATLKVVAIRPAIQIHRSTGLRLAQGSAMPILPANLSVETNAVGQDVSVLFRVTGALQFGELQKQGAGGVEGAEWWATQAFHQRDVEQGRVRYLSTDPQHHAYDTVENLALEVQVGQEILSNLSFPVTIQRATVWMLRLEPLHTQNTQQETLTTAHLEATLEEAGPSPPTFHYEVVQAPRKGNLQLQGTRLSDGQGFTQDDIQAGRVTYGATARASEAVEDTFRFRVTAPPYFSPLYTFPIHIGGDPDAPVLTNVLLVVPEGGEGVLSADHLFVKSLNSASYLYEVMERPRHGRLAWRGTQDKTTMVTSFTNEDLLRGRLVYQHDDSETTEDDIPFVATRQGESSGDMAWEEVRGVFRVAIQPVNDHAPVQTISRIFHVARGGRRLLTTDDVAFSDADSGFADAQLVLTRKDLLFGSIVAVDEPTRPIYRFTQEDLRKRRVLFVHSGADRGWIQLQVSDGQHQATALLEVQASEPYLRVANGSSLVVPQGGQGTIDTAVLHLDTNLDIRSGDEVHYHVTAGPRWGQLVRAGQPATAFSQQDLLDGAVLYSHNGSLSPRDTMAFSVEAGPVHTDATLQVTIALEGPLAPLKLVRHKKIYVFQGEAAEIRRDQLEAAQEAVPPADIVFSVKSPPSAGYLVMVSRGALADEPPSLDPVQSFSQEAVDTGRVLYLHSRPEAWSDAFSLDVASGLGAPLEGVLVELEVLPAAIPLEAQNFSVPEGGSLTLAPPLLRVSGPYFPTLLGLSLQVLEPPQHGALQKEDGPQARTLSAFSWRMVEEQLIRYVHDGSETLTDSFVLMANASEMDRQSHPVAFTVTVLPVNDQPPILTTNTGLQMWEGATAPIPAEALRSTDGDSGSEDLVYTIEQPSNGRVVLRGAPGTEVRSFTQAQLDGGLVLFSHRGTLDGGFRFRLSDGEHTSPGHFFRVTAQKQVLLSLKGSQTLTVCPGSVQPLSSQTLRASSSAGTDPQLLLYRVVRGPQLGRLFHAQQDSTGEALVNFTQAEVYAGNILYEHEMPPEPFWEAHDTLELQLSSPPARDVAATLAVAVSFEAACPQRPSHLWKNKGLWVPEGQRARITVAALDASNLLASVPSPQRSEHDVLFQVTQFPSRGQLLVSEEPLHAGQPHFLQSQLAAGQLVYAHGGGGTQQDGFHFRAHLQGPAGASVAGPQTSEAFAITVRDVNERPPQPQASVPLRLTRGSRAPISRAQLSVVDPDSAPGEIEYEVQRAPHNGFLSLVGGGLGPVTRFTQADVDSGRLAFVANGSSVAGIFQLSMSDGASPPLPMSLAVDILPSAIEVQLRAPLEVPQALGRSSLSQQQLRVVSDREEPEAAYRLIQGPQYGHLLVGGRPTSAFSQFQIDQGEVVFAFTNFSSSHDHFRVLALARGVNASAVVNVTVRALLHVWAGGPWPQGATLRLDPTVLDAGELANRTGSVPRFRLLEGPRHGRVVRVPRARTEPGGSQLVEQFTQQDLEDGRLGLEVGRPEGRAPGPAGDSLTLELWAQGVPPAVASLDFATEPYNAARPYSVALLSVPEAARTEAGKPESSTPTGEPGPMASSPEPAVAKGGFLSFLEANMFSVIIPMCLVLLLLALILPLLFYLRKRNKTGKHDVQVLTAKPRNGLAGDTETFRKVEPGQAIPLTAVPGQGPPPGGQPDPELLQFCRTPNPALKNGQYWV

EC50 [1]: 190 pM
EC50 [2]: 480 pM
EC50 [3]: 240 pM
EC50 [4]: 210 pM
EC50 [5]: 300 pM
EC50 [6]: 590 pM
B1: ARD107 antibody (antibody, human IgG1, kappa, V domains shown)
VH: EVQLQESGPGLVKPSQSLSLTCSVTGYSITSGYYWNWIRQFPGNKLEWMGYITYDGSNNYNPSLKNRISITRDTSKNQFFLKLNSVTTEDTATYYCADFDYWGQGTTLTVSS
VL: DIVLTQSPSSLSASLGDRVTISCSASQGIRNYLNWYQQRPDGTVKLLIYYTSSLHSGVPSRFSGSGSGTDYSLTISNLEPEDIATYYCQQYSKLPWTFGGGTKLEIKR
notes: also called unconjugated ARD107 monoclonal antibody
